This is an account of results in paper PMC6310155.

The assay concerns the target MmRIPK3 (S02-H303) kinase domain, N-terminal histidine tag (mouse). As to the kind of experiment: SEC.

In turn, “MmRIPK3 (S02-H303) kinase domain, N-terminal histidine tag (domain or fragment)” displayed a stoichiometry N of 2.

The term stoichiometry N denotes a count of units in the complex or per binding partner.
